Assay results from paper PMC3597794.
Several values for one entry are separate records, joined by “and”; a condition that tells them apart may be missing. Identical values can stand only once.

Molecular target: HsiB1C1 complex (P. aeruginosa PAO1)
Assay: negative stain electron microscopy

In the case of HsiB1C1 complex, the stoichiometry N is reported as 12 and 13.
